B10: SYCE2 core (amino-acids 57-165) (domain or fragment, human, UniProt Q6PIF2 57-165, looked up)
chain: GLYFSSLDSSIDILQKRAQELIENINKSRQKDHALMTNFRNSLKTKVSDLTEKLEERIYQIYNDHNKIIQEKLQEFTQKMAKISHLETELKQVCHSVETVYKDLCLQPE
notes: SYCE2, human, core, residues 57-165; also called SYCE2 structural core; source: E. coli BL21 (DE3), co-expressed with TEX12, purified (Ni-NTA, amylose, ion exchange, SEC); not shown: MBP, N-terminal, cleaved

The target in data set [1] is SYCE2-TEX12 core ΔCtip 2:2 complex (human) (UniProt Q6PIF2). The data set is described as follows: SEC-MALS; co-purified complexes at >1 mg/ml on Superdex 200 Increase 10/300 GL in 20 mM Tris pH 8.0, 150 mM KCl, 2 mM DTT; in Fig. 1 core at 200 uM and full-length at 100 uM (4 mg/ml).
The target in data set [2] is SYCE2-TEX12 full-length ΔCtip 2:2 complex (human) (UniProt Q6PIF2). Described as above.
Data set [3] addresses SYCE2-TEX12 core FFV (TEX12 F102A F109A V116A), 2:2 building block (human) (UniProt Q6PIF2). The description is as above.
For data set [4], the target named is B10. The data set is described as above. The settings on record: both partners purified.
Data set [5] addresses T1, SYCE2 core ΔS2C (amino-acids 57-154) (human, UniProt Q6PIF2 57-154).
T1 construct: SYCE2, human, ΔS2C, residues 57-154; source: E. coli BL21 (DE3), co-expressed with TEX12, purified (Ni-NTA, amylose, ion exchange, SEC); not shown: MBP, N-terminal, cleaved
T1 sequence (looked up): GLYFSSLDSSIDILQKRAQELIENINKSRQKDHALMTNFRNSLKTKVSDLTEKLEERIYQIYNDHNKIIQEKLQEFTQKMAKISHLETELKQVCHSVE
The data set is described as above. The settings on record: both partners purified.

For another data set, the target named is T2, SYCE2 core H89E Y115E (human, UniProt Q6PIF2 57-165, H89E | Y115E).
T2 construct: SYCE2, human, core, residues 57-165, with H89E and Y115E; source: E. coli BL21 (DE3), co-expressed with TEX12, purified (Ni-NTA, amylose, ion exchange, SEC); not shown: MBP, N-terminal, cleaved
T2 sequence (looked up): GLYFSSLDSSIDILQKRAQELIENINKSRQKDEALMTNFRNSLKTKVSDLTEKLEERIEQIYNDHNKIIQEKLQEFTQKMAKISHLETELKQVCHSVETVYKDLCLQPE
Described as above. To be noted: both partners purified.

The target in data set [6] is T3, SYCE2 core V149E V153E V156E L160E (human, UniProt Q6PIF2 57-165, V149E | V153E | V156E | L160E).
T3 construct: SYCE2, human, core, residues 57-165, with V149E, V153E, V156E and L160E; The four mutations are read as combined in one construct (one mass is printed for it); also called V149E, V153E, V156E and L160E mutant; S2C hydrophobic core mutant; source: E. coli BL21 (DE3), co-expressed with TEX12, purified (Ni-NTA, amylose, ion exchange, SEC); not shown: MBP, N-terminal, cleaved
T3 sequence (looked up): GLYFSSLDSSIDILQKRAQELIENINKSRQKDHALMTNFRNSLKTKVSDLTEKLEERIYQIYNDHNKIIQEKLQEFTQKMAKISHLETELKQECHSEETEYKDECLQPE
The description is as above. To be noted: both partners purified.

Data set [7] addresses T4, MBP-SYCE2 core (57-165) fusion protein (human, UniProt Q6PIF2 57-165).
T4 construct: SYCE2, human, core, residues 57-165; also called SYCE2-TEX12 core MBP-fusion, SYCE2 chain; source: E. coli BL21 (DE3), co-expressed with TEX12, purified; not shown: MBP, N-terminal, kept
T4 sequence (looked up): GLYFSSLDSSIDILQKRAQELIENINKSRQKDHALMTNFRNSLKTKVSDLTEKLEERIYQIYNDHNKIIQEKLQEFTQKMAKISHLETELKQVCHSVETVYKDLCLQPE
Described as above. To be noted: both partners purified.

The target of data set [8] is T5, MBP-SYCE2 core ΔS2C (57-154) fusion protein (human, UniProt Q6PIF2 57-154).
T5 construct: SYCE2, human, ΔS2C, residues 57-154; also called ΔS2C MBP-fusion, SYCE2 chain; source: E. coli BL21 (DE3), co-expressed with TEX12, purified; not shown: MBP, N-terminal, kept
T5 sequence (looked up): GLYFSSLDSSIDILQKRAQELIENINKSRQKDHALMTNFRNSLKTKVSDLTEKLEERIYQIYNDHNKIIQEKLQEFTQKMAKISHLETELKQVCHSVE
Described as above. The settings on record: both partners purified.

For data set [9], the target named is T6, SYCE2 full-length (1-218) (human, UniProt Q6PIF2 1-218).
T6 construct: SYCE2, human, full-length, residues 1-218; source: E. coli BL21 (DE3), co-expressed with TEX12, purified (Ni-NTA, amylose, ion exchange, SEC); not shown: MBP, N-terminal, cleaved
T6 sequence (looked up): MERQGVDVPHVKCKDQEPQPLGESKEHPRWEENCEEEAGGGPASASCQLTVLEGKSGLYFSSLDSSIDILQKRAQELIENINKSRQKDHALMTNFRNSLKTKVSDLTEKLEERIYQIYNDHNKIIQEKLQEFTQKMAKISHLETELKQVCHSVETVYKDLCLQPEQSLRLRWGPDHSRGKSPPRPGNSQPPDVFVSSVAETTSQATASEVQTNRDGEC
The description is as above. The settings on record: both partners purified.

Data set [10] concerns the molecule itself. Put plainly: crystal structure; SYCE2-TEX12 core ΔCtip 2:2 complex, 33 mg/ml, 35 % MPD, 20°C; space group P21; PDB 6R17.

By stoichiometry N is commonly meant the number of molecules, sites or subunits per partner or assembly.

Turning to “SYCE2-TEX12 core ΔCtip 2:2 complex (from UniProt Q6PIF2 57-165; Q9BXU0 49-113)”, in data set [1], the percent of total mass as 2:2 complex (not self-associated) turned out to be 98%, the percent of total mass as 4:4 complex came to 2% and the stoichiometry N (2:2 building blocks) is 2. In the case of “SYCE2-TEX12 full-length ΔCtip 2:2 complex (from UniProt Q6PIF2 1-218; Q9BXU0 1-113)”, in [2], the percent of total mass as 2:2 complex (not self-associated) worked out at 98%, the percent of total mass as 4:4 complex came to 2% and the stoichiometry N (2:2 building blocks) came out at 2. For “SYCE2-TEX12 core FFV (TEX12 F102A F109A V116A), 2:2 building block (from UniProt Q6PIF2 57-165; Q9BXU0 49-123) (complex)”, in [3], the stoichiometry N (2:2 building blocks) was determined as 2.

B1: TEX12 core (amino-acids 49-123) (domain or fragment, human, UniProt Q9BXU0 49-123, looked up)
chain: KDEALEKDLNDVSKEINLMLSTYAKLLSERAAVDASYIDEIDELFKEANAIENFLIQKREFLRQRFTVIANTLHR
notes: TEX12, human, core, residues 49-123; also called TEX12 structural core; source: E. coli BL21 (DE3), co-expressed with SYCE2, purified (Ni-NTA, amylose, ion exchange, SEC); not shown: His6, N-terminal, cleaved
Regarding B1, the “stoichiometry N” value in data set [4] was 1 TEX12 per SYCE2 (4:4); in [5], 1 TEX12 per SYCE2 (2:2); with SYCE2 core H89E Y115E, 1 TEX12 per SYCE2 (2:2); in data set [6], 1 TEX12 per SYCE2 (2:2).

B2: TEX12 core (49-123) of the SYCE2-TEX12 core MBP-fusion proteins (domain or fragment, human, UniProt Q9BXU0 49-123, looked up)
chain: KDEALEKDLNDVSKEINLMLSTYAKLLSERAAVDASYIDEIDELFKEANAIENFLIQKREFLRQRFTVIANTLHR
notes: TEX12, human, core, residues 49-123; also called TEX12 core in the MBP-fusion complexes; source: E. coli BL21 (DE3), co-expressed with MBP-SYCE2, purified
Consider B2, for which the results for the “stoichiometry N” value in data set [7] and in data set [8] were 1 TEX12 per SYCE2 (4:4) and 1 TEX12 per SYCE2 (2:2), respectively.

B3: TEX12 core L110E F114E I117E L121E (domain or fragment, human, UniProt Q9BXU0 49-123, looked up)
chain: KDEALEKDLNDVSKEINLMLSTYAKLLSERAAVDASYIDEIDELFKEANAIENFLIQKREFERQRETVEANTEHR
notes: TEX12, human, core, residues 49-123, with L110E, F114E, I117E and L121E; also called LFIL (core); source: E. coli BL21 (DE3), co-expressed with SYCE2, purified (Ni-NTA, amylose, ion exchange, SEC); not shown: His6, N-terminal, cleaved
Consider B3, for which the “stoichiometry N” value in data set [4] is 1 TEX12 per SYCE2 (2:2).

B4: TEX12 core F102A F109A V116A (domain or fragment, human, UniProt Q9BXU0 49-123, looked up)
chain: KDEALEKDLNDVSKEINLMLSTYAKLLSERAAVDASYIDEIDELFKEANAIENALIQKREALRQRFTAIANTLHR
notes: TEX12, human, core, residues 49-123, with F102A, F109A and V116A; also called FFV (core); source: E. coli BL21 (DE3), co-expressed with SYCE2, purified (Ni-NTA, amylose, ion exchange, SEC); not shown: His6, N-terminal, cleaved
Take B4: the “stoichiometry N” value in data set [4] was 1 TEX12 per SYCE2 (4:4).

B5: TEX12 full-length (1-123) (natural protein, human, UniProt Q9BXU0 1-123, looked up)
chain: MMANHLVKPDNRNCKRPRELESPVPDSPQLSSLGKSDSSFSEISGLFYKDEALEKDLNDVSKEINLMLSTYAKLLSERAAVDASYIDEIDELFKEANAIENFLIQKREFLRQRFTVIANTLHR
notes: TEX12, human, full-length, residues 1-123; source: E. coli BL21 (DE3), co-expressed with SYCE2, purified (Ni-NTA, amylose, ion exchange, SEC); not shown: His6, N-terminal, cleaved
For B5, in data set [9], the “stoichiometry N” value is 1 TEX12 per SYCE2 (2:2).

B6: TEX12 full-length F102A F109A V116A (natural protein, human, UniProt Q9BXU0 1-123, looked up)
chain: MMANHLVKPDNRNCKRPRELESPVPDSPQLSSLGKSDSSFSEISGLFYKDEALEKDLNDVSKEINLMLSTYAKLLSERAAVDASYIDEIDELFKEANAIENALIQKREALRQRFTAIANTLHR
notes: TEX12, human, full-length, residues 1-123, with F102A, F109A and V116A; also called FFV (full-length); source: E. coli BL21 (DE3), co-expressed with SYCE2, purified (Ni-NTA, amylose, ion exchange, SEC); not shown: His6, N-terminal, cleaved
With B6, the “stoichiometry N” value in [9] is 1 TEX12 per SYCE2 (2:2).

B7: TEX12 full-length L110E F114E I117E L121E (natural protein, human, UniProt Q9BXU0 1-123, looked up)
chain: MMANHLVKPDNRNCKRPRELESPVPDSPQLSSLGKSDSSFSEISGLFYKDEALEKDLNDVSKEINLMLSTYAKLLSERAAVDASYIDEIDELFKEANAIENFLIQKREFERQRETVEANTEHR
notes: TEX12, human, full-length, residues 1-123, with L110E, F114E, I117E and L121E; also called LFIL (full-length); source: E. coli BL21 (DE3), co-expressed with SYCE2, purified (Ni-NTA, amylose, ion exchange, SEC); not shown: His6, N-terminal, cleaved
As to B7, the “stoichiometry N” value in data set [9] is 1 TEX12 per SYCE2 (2:2).

B8: TEX12 core ΔCtip (49-113) of the SYCE2-TEX12 core MBP-fusion proteins (domain or fragment, human, UniProt Q9BXU0 49-113, looked up)
chain: KDEALEKDLNDVSKEINLMLSTYAKLLSERAAVDASYIDEIDELFKEANAIENFLIQKREFLRQR
notes: TEX12, human, core ΔCtip, residues 49-113; also called ΔCtip in the MBP-fusion complex; source: E. coli BL21 (DE3), co-expressed with MBP-SYCE2, purified
Regarding B8, in [7], the “stoichiometry N” value is 1 TEX12 per SYCE2 (2:2).

B9: TEX12 core ΔCtip (amino-acids 49-113) (domain or fragment, human, UniProt Q9BXU0 49-113, looked up)
chain: KDEALEKDLNDVSKEINLMLSTYAKLLSERAAVDASYIDEIDELFKEANAIENFLIQKREFLRQR
notes: TEX12, human, core ΔCtip, residues 49-113; source: E. coli BL21 (DE3), co-expressed with SYCE2, purified (Ni-NTA, amylose, ion exchange, SEC); not shown: His6, N-terminal, cleaved
Consider B9, for which the binding result in [10] was “binds”. Also, the “stoichiometry N” value in data set [4] and in [5] was 1 TEX12 per SYCE2 (2:2) each time.

On to B10, for which, in data set [10], the binding result was “binds”.

B11: TEX12 ΔCtip (amino-acids 1-113) (domain or fragment, human, UniProt Q9BXU0 1-113, looked up)
chain: MMANHLVKPDNRNCKRPRELESPVPDSPQLSSLGKSDSSFSEISGLFYKDEALEKDLNDVSKEINLMLSTYAKLLSERAAVDASYIDEIDELFKEANAIENFLIQKREFLRQR
notes: TEX12, human, ΔCtip, residues 1-113; also called TEX12 ΔCtip truncation; source: E. coli BL21 (DE3), co-expressed with SYCE2, purified (Ni-NTA, amylose, ion exchange, SEC); not shown: His6, N-terminal, cleaved
In the case of B11, the “stoichiometry N” value in data set [9] was 1 TEX12 per SYCE2 (2:2).

The values are drawn from PMC7612376, “Structural basis of meiotic chromosome synaptic elongation through hierarchical fibrous assembly of SYCE2-TEX12” (Nature structural & molecular biology, 2021).
